The values that follow are results of earlier work, collected in publication PMC2864607.

Like-named read-outs stand apart in the source and are kept apart here. Where only a bound is given, the exact number is not on record here.

The pKa is the pH at which an ionisable group is half protonated.

Targets include His318 (UniProt position 320, VSSTWHWTGHN); His322 (UniProt position 324, WHWTGHNVKHK); His326 (UniProt position 328, GHNVKHKSAIV); His451 (UniProt position 451, EASGCHYGVLT); His203 (UniProt position 203, LTPHRHRVSAI); His49 (UniProt position 49, PGIICHLDDPK).
Data set [1] relates to His2 (position 2, ----GHG----). Briefly: NMR. The following applies: 25 °C; 0.02 M NaCl; Free model peptide.
Data set [2] concerns the target His3 (position 3, ---FKHLK---). Briefly: NMR. The settings on record: 25 °C; 0.02 M NaCl; Free model peptide.
Data set [3] concerns the target His3 (position 3, ---KSHPE---). Briefly: NMR. The following applies: 25 °C, 0.02 M NaCl, Free model peptide.
Setting [4] is: Protein bound specifically to its cognate DNA recognition sequence.

For the molecule “E2 protein C-terminal DNA-binding domain (E2C) (Human papillomavirus type 16)”, the pKa in the data set with His318 (setting [4]) is reported as 7.8; with His318 (Unbound protein (no DNA)), 6.7; with His322 (setting [4]), 6.3; in the data set with His322 (Unbound protein (no DNA)) it was 6.3; with His326 (setting [4]), 6.2; with His326 (Unbound protein (no DNA)), 6.2.
With “GHG model tripeptide (Gly-His-Gly) (synthetic)”, in data set [1], the pKa is 6.68 ± 0.02.
On to “Glucocorticoid receptor (DNA-binding domain) (Rattus norvegicus)”, for which the pKa with His451 (setting [4]) is listed as 7.9; with His451 (Unbound protein (no DNA)), 5.9.
In the case of “Large T antigen origin-binding domain (T-ag-obd) (Simian virus 40)”, the pKa with His203 (setting [4]) is listed as >8; with His203 (Unbound protein (no DNA)), ~5.
For “TATA-binding protein (PwTBP) (Pyrococcus woesei)”, the pKa is recorded as 7.2 in the data set with His49 (setting [4]) and 6.2 with His49 (Unbound protein (no DNA)).

B1: FKHLK model peptide (myoglobin-derived) (synthetic (sequence from Physeter macrocephalus myoglobin)) (peptide)
chain: FKHLK
Turning to B1, in data set [2], the pKa is 6.16 ± 0.02.

B2: KSHPE model peptide (myoglobin-derived) (synthetic (sequence from Physeter macrocephalus myoglobin)) (peptide)
chain: KSHPE
As to B2, the values for the pKa in data set [3] (cis His-Pro isomer) and in [3] (trans His-Pro isomer) were 6.23 ± 0.02 and 6.69 ± 0.02, respectively.
